Three molecules from US20230331836A1 (SUZHOU TRANSCENTA THERAPEUTICS, published 2023) can be followed below.

In assay [1] the target is T1, hCLDN18.2 peptide (amino acid residues 28-37 of hCLDN18.2) (human).
T1 construct: Synthesised by Sangon Biotech; coated on ELISA plates; also called antigen peptide; hCLDN18.2 Peptide (aa28-37)
T1 peptide: DQWSTQDLYN
In words: ELISA on coated peptide. As to the method:
(§1) 1 μg/ml of peptide ([…]) was coated onto the high-binding clear polystyrene 96 well plates and blocked with blocking buffer. Serial diluted antibodies (from 150 to 0.0732 ng/ml) in blocking buffer were then added and incubated for 1.5 hrs at room temperature. The plate was washed 6 times using washing buffer and then 100 μl/well Goat pAb to Ms IgG(HRP) was added for incubation at room temperature for 1.5 hr. After washing with washing buffer, TMB was added to react with HRP on the plate. Then OD450 nm of the plate was read by SpectraMax i3x (Molecular Devices). 14G11G2D2 and 69H2F7E6 can specifically bind with the peptide with high affinity while GC182 can not recognize the epitope in the linear peptide. (FIG. 3)

In assay [2] the target is T2, human CLDN18.1 (human, UniProt P56856 1-261).
T2 construct: also called hCLDN18.1
T2 sequence: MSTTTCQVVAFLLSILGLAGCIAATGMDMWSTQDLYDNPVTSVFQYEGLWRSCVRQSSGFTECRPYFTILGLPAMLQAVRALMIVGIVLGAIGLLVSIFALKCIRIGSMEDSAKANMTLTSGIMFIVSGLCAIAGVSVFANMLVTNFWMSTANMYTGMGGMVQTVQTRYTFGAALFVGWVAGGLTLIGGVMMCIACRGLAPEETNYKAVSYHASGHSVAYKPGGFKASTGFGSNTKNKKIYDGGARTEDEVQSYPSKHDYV
In words: ICC on FFPE HEK293-CLDN18.1 cell block sections; clone 69H2F7E6; '-' = negative staining.

Assay [3] has as its target T3, Human recombinant CLDN18.2 (N-6His) variant (human).
T3 construct: Bought fusion polypeptide; also called recombinant hCLDN18.2 variant protein; Novoprotein NC101
T3 chain: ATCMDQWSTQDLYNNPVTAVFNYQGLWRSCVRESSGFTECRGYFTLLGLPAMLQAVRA
In words: ELISA on coated recombinant CLDN18.2 (N-6His) variant (1 µg/ml). As to the method:
1 μg/ml of human recombinant CLDN18.2 (N-6His) variant or human recombinant CLDN18.1 (N-8His) variant (100 μL/well) was coated onto the high-binding clear polystyrene 96 well plates and blocked with blocking buffer. Serial diluted antibodies (from 100 to 0.0244 ng/ml) in blocking buffer were added and incubated for 1.5 hrs at room temperature. The plate was washed 6 times using washing buffer (PBS+0.1% Tween) washer and then 100 μl/well Goat pAb to Ms IgG (HRP) was added for incubation at RT for 1.5 hr. After washing with washing buffer, TMB was added to react with RP on the plate. Then OD450 nm of the plate was read by SpectraMax i3x (Molecular Devices).
(In an ELISA, binding on a coated surface is turned into a signal by an enzyme label.)

The target of assay [4] is T3, Human recombinant CLDN18.2 (N-6His) …. In words: BLI (ForteBio Octet RED 96), His-tagged antigen on Ni-NTA sensors, antibody 50 and 25 nM in solution, 30 C. As to the method: (§2) 100 nM human recombinant CLDN18.2 (N-6His) (Novoprotein, NC101) protein in 1×Kinetics Buffer ((PBS+0.1% BSA+0.02% Tween20) were loaded onto pre-wet Ni-NTA biosensors (PALL, 18-5101) for 200s. After equilibrated in 1×Kinetics Buffer as baseline (60s), the sensor was immersed into serial diluted antibodies (50 nM, 25 nM) with 1×Kinetics Buffer respectively and incubated for 200s to determine the association (kon), followed by dissociation in 1×Kinetics Buffer for 200s (koff). The biosensors are regenerated for 5s in Regeneration Buffer, followed by neutralization for 5s in Neutralization Buffer for 3 times. All procedure were performed at 30° C. with Octet RED 96 (PALL). The binding affinity KD was calculated and analyzed using the ratio of koff to kon. (FIG. 6).

For assay [5], the target named is T1, hCLDN18.2 peptide (amino acid residues …). In words: ELISA: hCLDN18.2 peptide (aa 28-37) coated on the plate at 1 ug/ml, antibody dilution series up to 150 ng/mL, detection with goat anti-mouse IgG-HRP, OD450-OD620. As to the method: as §1
Assay [6] concerns the target T3, Human recombinant CLDN18.2 (N-6His) …. The experiment in a line: BLI (ForteBio Octet RED 96): His-tagged recombinant hCLDN18.2 variant loaded on Ni-NTA biosensors, antibody in solution at 50 nM and 25 nM. As to the method:
as §2

Assay [7] has as its target T2, human CLDN18.1. The experiment in a line: ICC on FFPE HEK293-CLDN18.1 cell block sections; clone 14G11F5E1; '-' = negative staining.

Numbering of substitutions follows the chain as printed.

B1: GC182 (antibody, V domains shown)
VH: QIQLVQSGPELKKFGETVKISCKASGYTFTDYSIHWVKQAPGKGLKWMGWINTETGVPTYADDFKGRFAFSLETSASTAYLQINNLKNEDTATYFCARRTGFDYWGQGTTLTVSS
VL: DIVMTQAAFSIPVTLGTSASISCRSSKNLLHSDGITYLYWYLQRPGQSPQLLIYRVSNLASGVPNRFSGSESGTDFTLRISRVEAEDVGVYYCVQVLELPFTFGGGTKLEIK
notes: also called anti-CLDN18.2 antibody GC182
Take B1: the binding result in assay [1] is listed as “no binding (tested: 150 ng/ml (highest concentration tested))”.

B2: 69H2 (antibody, mouse IgG1, kappa, V domains shown)
VH: QVQLQQSGPELMKPGASLQISCKASGYFFTTYYIHWVKQRPGQGLEWIGWIYPRGGNTVYNEKFKGKATLTSDTSSSTAYMQLSSLTSEDSAVYYCAINYRSTFGYWGQGTLVTVSA
VL: DVLMTQTPLSLPVSLGDQASISCRSSQNIVHSNGNTYLEWYLQKPGQSPKLLIYKISNRFSGVPDRFSGSGSGTDFTLKISRVEAEDLGVYYCFQGSHVPFTFGSGTKLEIKR
notes: Mouse antibody; the recombinant form is VH/VL fused to mouse IgG1 / kappa constant regions; also called 69H2F7E6; 69H2D3B1
For B2, in assay [2], the binding result is recorded as “no binding (tested: 1 nM)”. In addition, the results for the EC50 in assay [3] and in assay [5] were 0.0139 µg/mL and 0.0143 µg/mL, respectively. The Kd in assay [4] came out at 1.48 nM. For the same molecule, the koff in assay [6] turned out to be 0.000695 s⁻¹. In addition, the kon in assay [6] was 471000 M⁻¹ s⁻¹.

B3: 14G11 (antibody, mouse IgG1, kappa, V domains shown)
VH: QVQLQQSGPELVRPGASVKISCKASGYRFTRNYFHWVKQRPGQGLEWIGWIYPGGFDIEYSEKFKGKATLTTDTSSSTAYMLLTSLTSEDSAVYYCAINYGSTFGYWGQGTLVTVSV
VL: B2 VL with K44R, I56V, S81N
notes: Mouse antibody; the recombinant form is VH/VL fused to mouse IgG1 / kappa constant regions; also called 14G11G2D2; 14G11A4E1
For the molecule B3, the binding result in assay [7] is “no binding (tested: 0.5 nM)”. Further, the EC50 in assay [3] stood at 0.0127 µg/mL. Besides, the Kd in assay [4] came to 0.213 nM. In addition, in assay [5], a half-maximal response (EC50) required 0.027 µg/mL. For the same molecule, in assay [6], the koff came to 0.000111 s⁻¹ and the on-rate (kon) turned out to be 522000 M⁻¹ s⁻¹.

For orientation: EC50 means the concentration at which the effect is half-maximal. The Kd is the constant that tells how readily two partners part at equilibrium. The term koff denotes the rate constant with which the complex falls apart. As usually defined, the kon is the second-order rate constant of association.
